Experimental data reported in patent US20080206136A1 (University of Pennsylvania, published 2008).
Bridges are numbered along the chain shown (N, C = ends). Where no end group is shown, it is not given here.

Molecular target: T1, Her2 (UniProt P04626 23-652, limits assumed)
T1 construct: also called Her2/neu; Neu
Assay: method not stated; affinity for Her2

**Q.** For FCDGFYACYMDV (disulfide 2-8 (inferred), also called anti-Her2 peptide) [AHNP peptide], which Kd is on record?
**A.** 350 nM
